Measured values from US20210388087A1 (Chugai, published 2021).

target: T1, CD3 epsilon homodimer protein (UniProt P07766 23-126); assay: SPR (Biacore T200), CD3 epsilon homodimer on CM4 chip, one-arm antibody as analyte, 25 C;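 also: homodimer attached to the sensor surface via amine coupling, HBS-EP+ used as running buffer during binding runs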
T1 construct: immobilized on Sensor chip CM4 by amine coupling; also called CD3 (CD3 epsilon)
T1 sequence (P07766 23-126): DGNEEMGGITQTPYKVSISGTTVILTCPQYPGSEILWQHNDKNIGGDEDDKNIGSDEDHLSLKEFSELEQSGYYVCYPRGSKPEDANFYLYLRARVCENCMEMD
Procedure: An appropriate amount of CD3 epsilon homodimer protein was immobilized onto Sensor chip CM4 (GE Healthcare Japan Corp.) by the amine coupling method. Then, the antibody having an appropriate concentration was injected thereto as an analyte and allowed to interact with the CD3 epsilon homodimer protein on the sensor chip. Then, the sensor chip was regenerated by the injection of 10 mmol/L glycine-HCl (pH 1.5). The assay was conducted at 25 degrees C., and HBS-EP+(GE Healthcare Japan Corp.) was used as a running buffer. […] Each parameter was calculated using Biacore T200 Evaluation Software (GE Healthcare Japan Corp.).

| Binder | ratio of amounts bound (altered form / CE115HA000) |
| --- | --- |
| CE115HA000 G100bY one-arm antibody (antibody, human IgG1, kappa, L234A L235A, N297A, name in Kabat numbering) heavy: QVQLVESGGGVVQPGRSLRLSCAASGFTFSNAWMHWVRQAPGKGLEWVAQIKAKSNNYATYYAESVKGRFTISRDDSKNSLYLQMNSLKTEDTAVYYCRYVHYGAYYYVDAWGQGTTVTVSSASTKGPSVFPLAPSSKSTSGGTAALGCLVKDYFPEPVTVSWNSGALTSGVHTFPAVLQSSGLYSLSSVVTVPSSSLGTQTYICNVNHKPSNTKVDKKVEPKSCDKTHTCPPCPAPEAAGGPSVFLFPPKPKDTLMISRTPEVTCVVVDVSHEDPEVKFNWYVDGVEVHNAKTKPREEQYASTYRVVSVLTVLHQDWLNGKEYKCKVSNKALPAPIEKTISKAKGQPREPQVYTLPPSRCELTKNQVSLSCAVKGFYPSDIAVEWESNGQPENNYKTTPPVLDSDGSFFLVSKLTVDKSRWQQGNVFSCSVMHEALHNHYTQKSLSLSPDYKDDDDK EPKSSDKTHTCPPCPAPELLGGPSVFLFPPKPKDTLMISRTPEVTCVVVDVSHEDPEVKFNWYVDGVEVHNAKTKPREEQYNSTYRVVSVLTVLHQDWLNGKEYKCKVSNKALPAPIEKTISKAKGQPREPQVCTLPPSRDELTKNQVSLWCLVKGFYPSDIAVEWESNGQPENNYKTTPPVLDSDGSFFLYSKLTVDKSRWQQGNVFSCSVMHEALHNRYTQKSLSLSP light: DIVMTQSPLSLPVTPGEPASISCRSSQSLVHSNRNTYLHWYQQKPGQAPRLLIYKVSNRFSGVPDRFSGSGSGTDFTLKISRVEAEDVGVYYCGQGTQVPYTFGQGTKLEIKRTVAAPSVFIFPPSDEQLKSGTASVVCLLNNFYPREAKVQWKVDNALQSGNSQESVTEQDSKDSTYSLSSTLTLSKADYEKHKVYACEVTHQGLSSPVTKSFNRGEC | 0.23 |
| CE115HA000 H35D one-arm antibody (antibody, human IgG1, kappa, L234A L235A, N297A, name in Kabat numbering) heavy: QVQLVESGGGVVQPGRSLRLSCAASGFTFSNAWMDWVRQAPGKGLEWVAQIKAKSNNYATYYAESVKGRFTISRDDSKNSLYLQMNSLKTEDTAVYYCRYVHYGAYYGVDAWGQGTTVTVSSASTKGPSVFPLAPSSKSTSGGTAALGCLVKDYFPEPVTVSWNSGALTSGVHTFPAVLQSSGLYSLSSVVTVPSSSLGTQTYICNVNHKPSNTKVDKKVEPKSCDKTHTCPPCPAPEAAGGPSVFLFPPKPKDTLMISRTPEVTCVVVDVSHEDPEVKFNWYVDGVEVHNAKTKPREEQYASTYRVVSVLTVLHQDWLNGKEYKCKVSNKALPAPIEKTISKAKGQPREPQVYTLPPSRCELTKNQVSLSCAVKGFYPSDIAVEWESNGQPENNYKTTPPVLDSDGSFFLVSKLTVDKSRWQQGNVFSCSVMHEALHNHYTQKSLSLSPDYKDDDDK EPKSSDKTHTCPPCPAPELLGGPSVFLFPPKPKDTLMISRTPEVTCVVVDVSHEDPEVKFNWYVDGVEVHNAKTKPREEQYNSTYRVVSVLTVLHQDWLNGKEYKCKVSNKALPAPIEKTISKAKGQPREPQVCTLPPSRDELTKNQVSLWCLVKGFYPSDIAVEWESNGQPENNYKTTPPVLDSDGSFFLYSKLTVDKSRWQQGNVFSCSVMHEALHNRYTQKSLSLSP light: DIVMTQSPLSLPVTPGEPASISCRSSQSLVHSNRNTYLHWYQQKPGQAPRLLIYKVSNRFSGVPDRFSGSGSGTDFTLKISRVEAEDVGVYYCGQGTQVPYTFGQGTKLEIKRTVAAPSVFIFPPSDEQLKSGTASVVCLLNNFYPREAKVQWKVDNALQSGNSQESVTEQDSKDSTYSLSSTLTLSKADYEKHKVYACEVTHQGLSSPVTKSFNRGEC | 0.2 |
| CE115HA000 H35G one-arm antibody (antibody, human IgG1, kappa, L234A L235A, N297A, name in Kabat numbering) heavy: QVQLVESGGGVVQPGRSLRLSCAASGFTFSNAWMGWVRQAPGKGLEWVAQIKAKSNNYATYYAESVKGRFTISRDDSKNSLYLQMNSLKTEDTAVYYCRYVHYGAYYGVDAWGQGTTVTVSSASTKGPSVFPLAPSSKSTSGGTAALGCLVKDYFPEPVTVSWNSGALTSGVHTFPAVLQSSGLYSLSSVVTVPSSSLGTQTYICNVNHKPSNTKVDKKVEPKSCDKTHTCPPCPAPEAAGGPSVFLFPPKPKDTLMISRTPEVTCVVVDVSHEDPEVKFNWYVDGVEVHNAKTKPREEQYASTYRVVSVLTVLHQDWLNGKEYKCKVSNKALPAPIEKTISKAKGQPREPQVYTLPPSRCELTKNQVSLSCAVKGFYPSDIAVEWESNGQPENNYKTTPPVLDSDGSFFLVSKLTVDKSRWQQGNVFSCSVMHEALHNHYTQKSLSLSPDYKDDDDK EPKSSDKTHTCPPCPAPELLGGPSVFLFPPKPKDTLMISRTPEVTCVVVDVSHEDPEVKFNWYVDGVEVHNAKTKPREEQYNSTYRVVSVLTVLHQDWLNGKEYKCKVSNKALPAPIEKTISKAKGQPREPQVCTLPPSRDELTKNQVSLWCLVKGFYPSDIAVEWESNGQPENNYKTTPPVLDSDGSFFLYSKLTVDKSRWQQGNVFSCSVMHEALHNRYTQKSLSLSP light: DIVMTQSPLSLPVTPGEPASISCRSSQSLVHSNRNTYLHWYQQKPGQAPRLLIYKVSNRFSGVPDRFSGSGSGTDFTLKISRVEAEDVGVYYCGQGTQVPYTFGQGTKLEIKRTVAAPSVFIFPPSDEQLKSGTASVVCLLNNFYPREAKVQWKVDNALQSGNSQESVTEQDSKDSTYSLSSTLTLSKADYEKHKVYACEVTHQGLSSPVTKSFNRGEC | 0.22 |

Next, values leading:

| ratio of amounts bound (altered form / CE115HA000) | Binder |
| --- | --- |
| 0.52 | CE115HA000 G100bS one-arm antibody (antibody, human IgG1, kappa, L234A L235A, N297A, name in Kabat numbering) heavy: QVQLVESGGGVVQPGRSLRLSCAASGFTFSNAWMHWVRQAPGKGLEWVAQIKAKSNNYATYYAESVKGRFTISRDDSKNSLYLQMNSLKTEDTAVYYCRYVHYGAYYSVDAWGQGTTVTVSSASTKGPSVFPLAPSSKSTSGGTAALGCLVKDYFPEPVTVSWNSGALTSGVHTFPAVLQSSGLYSLSSVVTVPSSSLGTQTYICNVNHKPSNTKVDKKVEPKSCDKTHTCPPCPAPEAAGGPSVFLFPPKPKDTLMISRTPEVTCVVVDVSHEDPEVKFNWYVDGVEVHNAKTKPREEQYASTYRVVSVLTVLHQDWLNGKEYKCKVSNKALPAPIEKTISKAKGQPREPQVYTLPPSRCELTKNQVSLSCAVKGFYPSDIAVEWESNGQPENNYKTTPPVLDSDGSFFLVSKLTVDKSRWQQGNVFSCSVMHEALHNHYTQKSLSLSPDYKDDDDK EPKSSDKTHTCPPCPAPELLGGPSVFLFPPKPKDTLMISRTPEVTCVVVDVSHEDPEVKFNWYVDGVEVHNAKTKPREEQYNSTYRVVSVLTVLHQDWLNGKEYKCKVSNKALPAPIEKTISKAKGQPREPQVCTLPPSRDELTKNQVSLWCLVKGFYPSDIAVEWESNGQPENNYKTTPPVLDSDGSFFLYSKLTVDKSRWQQGNVFSCSVMHEALHNRYTQKSLSLSP light: DIVMTQSPLSLPVTPGEPASISCRSSQSLVHSNRNTYLHWYQQKPGQAPRLLIYKVSNRFSGVPDRFSGSGSGTDFTLKISRVEAEDVGVYYCGQGTQVPYTFGQGTKLEIKRTVAAPSVFIFPPSDEQLKSGTASVVCLLNNFYPREAKVQWKVDNALQSGNSQESVTEQDSKDSTYSLSSTLTLSKADYEKHKVYACEVTHQGLSSPVTKSFNRGEC |
| 0.19 | CE115HA000 H35E one-arm antibody (antibody, human IgG1, kappa, L234A L235A, N297A, name in Kabat numbering) heavy: QVQLVESGGGVVQPGRSLRLSCAASGFTFSNAWMEWVRQAPGKGLEWVAQIKAKSNNYATYYAESVKGRFTISRDDSKNSLYLQMNSLKTEDTAVYYCRYVHYGAYYGVDAWGQGTTVTVSSASTKGPSVFPLAPSSKSTSGGTAALGCLVKDYFPEPVTVSWNSGALTSGVHTFPAVLQSSGLYSLSSVVTVPSSSLGTQTYICNVNHKPSNTKVDKKVEPKSCDKTHTCPPCPAPEAAGGPSVFLFPPKPKDTLMISRTPEVTCVVVDVSHEDPEVKFNWYVDGVEVHNAKTKPREEQYASTYRVVSVLTVLHQDWLNGKEYKCKVSNKALPAPIEKTISKAKGQPREPQVYTLPPSRCELTKNQVSLSCAVKGFYPSDIAVEWESNGQPENNYKTTPPVLDSDGSFFLVSKLTVDKSRWQQGNVFSCSVMHEALHNHYTQKSLSLSPDYKDDDDK EPKSSDKTHTCPPCPAPELLGGPSVFLFPPKPKDTLMISRTPEVTCVVVDVSHEDPEVKFNWYVDGVEVHNAKTKPREEQYNSTYRVVSVLTVLHQDWLNGKEYKCKVSNKALPAPIEKTISKAKGQPREPQVCTLPPSRDELTKNQVSLWCLVKGFYPSDIAVEWESNGQPENNYKTTPPVLDSDGSFFLYSKLTVDKSRWQQGNVFSCSVMHEALHNRYTQKSLSLSP light: DIVMTQSPLSLPVTPGEPASISCRSSQSLVHSNRNTYLHWYQQKPGQAPRLLIYKVSNRFSGVPDRFSGSGSGTDFTLKISRVEAEDVGVYYCGQGTQVPYTFGQGTKLEIKRTVAAPSVFIFPPSDEQLKSGTASVVCLLNNFYPREAKVQWKVDNALQSGNSQESVTEQDSKDSTYSLSSTLTLSKADYEKHKVYACEVTHQGLSSPVTKSFNRGEC |
| 0.21 | CE115HA000 H35F one-arm antibody (antibody, human IgG1, kappa, L234A L235A, N297A, name in Kabat numbering) heavy: QVQLVESGGGVVQPGRSLRLSCAASGFTFSNAWMFWVRQAPGKGLEWVAQIKAKSNNYATYYAESVKGRFTISRDDSKNSLYLQMNSLKTEDTAVYYCRYVHYGAYYGVDAWGQGTTVTVSSASTKGPSVFPLAPSSKSTSGGTAALGCLVKDYFPEPVTVSWNSGALTSGVHTFPAVLQSSGLYSLSSVVTVPSSSLGTQTYICNVNHKPSNTKVDKKVEPKSCDKTHTCPPCPAPEAAGGPSVFLFPPKPKDTLMISRTPEVTCVVVDVSHEDPEVKFNWYVDGVEVHNAKTKPREEQYASTYRVVSVLTVLHQDWLNGKEYKCKVSNKALPAPIEKTISKAKGQPREPQVYTLPPSRCELTKNQVSLSCAVKGFYPSDIAVEWESNGQPENNYKTTPPVLDSDGSFFLVSKLTVDKSRWQQGNVFSCSVMHEALHNHYTQKSLSLSPDYKDDDDK EPKSSDKTHTCPPCPAPELLGGPSVFLFPPKPKDTLMISRTPEVTCVVVDVSHEDPEVKFNWYVDGVEVHNAKTKPREEQYNSTYRVVSVLTVLHQDWLNGKEYKCKVSNKALPAPIEKTISKAKGQPREPQVCTLPPSRDELTKNQVSLWCLVKGFYPSDIAVEWESNGQPENNYKTTPPVLDSDGSFFLYSKLTVDKSRWQQGNVFSCSVMHEALHNRYTQKSLSLSP light: DIVMTQSPLSLPVTPGEPASISCRSSQSLVHSNRNTYLHWYQQKPGQAPRLLIYKVSNRFSGVPDRFSGSGSGTDFTLKISRVEAEDVGVYYCGQGTQVPYTFGQGTKLEIKRTVAAPSVFIFPPSDEQLKSGTASVVCLLNNFYPREAKVQWKVDNALQSGNSQESVTEQDSKDSTYSLSSTLTLSKADYEKHKVYACEVTHQGLSSPVTKSFNRGEC |
